From publication PMC3916536 come the findings set out here.

Broadly, the stoichiometry N is the number of molecules, sites or subunits per partner or assembly.

The target of assay [1] is HLA-A2/D76N β2m/NY-ESO-1(Y1V9) complex. The assay can be described thus: native MS; nano-ESI-MS, 10 μM protein, 100 mM ammonium acetate, pH 7, declustering potential 50 V, complexes with peptide I.
In assay [2] the target is HLA-A2/WT β2m/NY-ESO-1(Y1V9) complex. The assay is described as above.

As to “HLA-A2/D76N β2m/NY-ESO-1(Y1V9) complex (from UniProt P61769 21-119) (peptide-MHC)”, the stoichiometry N in assay [1] was found to be 2.
Take “HLA-A2/WT β2m/NY-ESO-1(Y1V9) complex (from UniProt P61769 21-119) (peptide-MHC)”: in assay [2], the stoichiometry N was 2.
